Our source for the Kd values is paper PMC8945915, “An Electrochemical Impedance Spectroscopy-Based Aptasensor for the Determination of SARS-CoV-2-RBD Using a Carbon Nanofiber–Gold Nanocomposite Modified Screen-Printed Electrode”.

For the data set, the target named is SARS-CoV-2 spike receptor-binding domain (SARS-CoV-2-RBD, ~35 kDa) (SARS-CoV-2, UniProt P0DTC2 319-541). As to the kind of experiment: electrochemical impedance spectroscopy (Langmuir isotherm).

B1: thiol-terminal SARS-CoV-2-RBD aptamer (ssDNA)
DNA: CAGCACCGACCTTGTGCTTTGGGAGTGCTGGTCCAAGGGCGTTAATGGACA
modifications: 5' SH-(CH2)6 thiol
The Kd is a measure of binding affinity in units of concentration. As for B1, the Kd was 0.42 nM.
